{
  "source": "the Human Domainome abundance scans (Beltran et al. 2025)",
  "parents": {"B1": {"name": "Protein maelstrom homolog, residues 3 to 71; numbered along this chain, Q96JY0 (parent)", "chain": "NRKASRNAYYFFVQEKIPELRRRGLPVARVADAIPYCSSDWALLREEEKEKYAEMAREWRAAQGKDPGP"}},
  "note": "± gives the uncertainty stated by the source.",
  "data": [
    {"variants_of": "B1", "assay": "abundance fitness (aPCA) (normalised: wild type 0, dead -1); higher = more abundant; growth selection in yeast, the domain comes from the species named", "details": "Homo sapiens", "values": [
      {"variant": "NRKASRNAYYYFVQEKIPELRRRGLPVARVADAIPYCSSDWALLREEEKEKYAEMAREWRAAQGKDPGP", "note": "[F11Y]", "abundance fitness": "-0.036 ± 0.13"},
      {"variant": "NRKASRNAYYHFVQEKIPELRRRGLPVARVADAIPYCSSDWALLREEEKEKYAEMAREWRAAQGKDPGP", "note": "[F11H]", "abundance fitness": "-0.107 ± 0.18"},
      {"variant": "NRKASRNAYYAFVQEKIPELRRRGLPVARVADAIPYCSSDWALLREEEKEKYAEMAREWRAAQGKDPGP", "note": "[F11A]", "abundance fitness": "-0.265 ± 0.075"},
      {"variant": "NRKASRNAYPFFVQEKIPELRRRGLPVARVADAIPYCSSDWALLREEEKEKYAEMAREWRAAQGKDPGP", "note": "[Y10P]", "abundance fitness": "-1.07 ± 0.18"},
      {"variant": "NRKASRNAYRFFVQEKIPELRRRGLPVARVADAIPYCSSDWALLREEEKEKYAEMAREWRAAQGKDPGP", "note": "[Y10R]", "abundance fitness": "-0.358 ± 0.066"},
      {"variant": "NRKASRNAYVFFVQEKIPELRRRGLPVARVADAIPYCSSDWALLREEEKEKYAEMAREWRAAQGKDPGP", "note": "[Y10V]", "abundance fitness": "-0.498 ± 0.092"},
      {"variant": "NRKASRNAYSFFVQEKIPELRRRGLPVARVADAIPYCSSDWALLREEEKEKYAEMAREWRAAQGKDPGP", "note": "[Y10S]", "abundance fitness": "-0.552 ± 0.1"},
      {"variant": "NRKASRNAYWFFVQEKIPELRRRGLPVARVADAIPYCSSDWALLREEEKEKYAEMAREWRAAQGKDPGP", "note": "[Y10W]", "abundance fitness": "-0.175 ± 0.1"},
      {"variant": "NRKASRNAYTFFVQEKIPELRRRGLPVARVADAIPYCSSDWALLREEEKEKYAEMAREWRAAQGKDPGP", "note": "[Y10T]", "abundance fitness": "-0.427 ± 0.096"},
      {"variant": "NRKASRNAYQFFVQEKIPELRRRGLPVARVADAIPYCSSDWALLREEEKEKYAEMAREWRAAQGKDPGP", "note": "[Y10Q]", "abundance fitness": "-0.254 ± 0.079"},
      {"variant": "NRKASRNAYYFNVQEKIPELRRRGLPVARVADAIPYCSSDWALLREEEKEKYAEMAREWRAAQGKDPGP", "note": "[F12N]", "abundance fitness": "-0.624 ± 0.18"},
      {"variant": "NRKASRNAYYFCVQEKIPELRRRGLPVARVADAIPYCSSDWALLREEEKEKYAEMAREWRAAQGKDPGP", "note": "[F12C]", "abundance fitness": "-0.621 ± 0.12"},
      {"variant": "NRKASRNAYYFVVQEKIPELRRRGLPVARVADAIPYCSSDWALLREEEKEKYAEMAREWRAAQGKDPGP", "note": "[F12V]", "abundance fitness": "-0.757 ± 0.077"},
      {"variant": "NRKASRNAYYFEVQEKIPELRRRGLPVARVADAIPYCSSDWALLREEEKEKYAEMAREWRAAQGKDPGP", "note": "[F12E]", "abundance fitness": "-0.778 ± 0.11"},
      {"variant": "NRKASRNAYYFLVQEKIPELRRRGLPVARVADAIPYCSSDWALLREEEKEKYAEMAREWRAAQGKDPGP", "note": "[F12L]", "abundance fitness": "-0.713 ± 0.072"},
      {"variant": "NRKASRNAYYFDVQEKIPELRRRGLPVARVADAIPYCSSDWALLREEEKEKYAEMAREWRAAQGKDPGP", "note": "[F12D]", "abundance fitness": "-0.403 ± 0.13"},
      {"variant": "NRKASRNAYYFRVQEKIPELRRRGLPVARVADAIPYCSSDWALLREEEKEKYAEMAREWRAAQGKDPGP", "note": "[F12R]", "abundance fitness": "-0.797 ± 0.061"},
      {"variant": "NRKASRNAYYFSVQEKIPELRRRGLPVARVADAIPYCSSDWALLREEEKEKYAEMAREWRAAQGKDPGP", "note": "[F12S]", "abundance fitness": "-0.7 ± 0.12"},
      {"variant": "NRKASRNAYYFGVQEKIPELRRRGLPVARVADAIPYCSSDWALLREEEKEKYAEMAREWRAAQGKDPGP", "note": "[F12G]", "abundance fitness": "-0.531 ± 0.064"},
      {"variant": "NRKASRNAYYFHVQEKIPELRRRGLPVARVADAIPYCSSDWALLREEEKEKYAEMAREWRAAQGKDPGP", "note": "[F12H]", "abundance fitness": "-0.847 ± 0.26"},
      {"variant": "NRKASRNAYYFWVQEKIPELRRRGLPVARVADAIPYCSSDWALLREEEKEKYAEMAREWRAAQGKDPGP", "note": "[F12W]", "abundance fitness": "-0.404 ± 0.068"},
      {"variant": "NRKASRNAYYFYVQEKIPELRRRGLPVARVADAIPYCSSDWALLREEEKEKYAEMAREWRAAQGKDPGP", "note": "[F12Y]", "abundance fitness": "0.013 ± 0.1"},
      {"variant": "NRKASRNAYYFPVQEKIPELRRRGLPVARVADAIPYCSSDWALLREEEKEKYAEMAREWRAAQGKDPGP", "note": "[F12P]", "abundance fitness": "-0.869 ± 0.099"},
      {"variant": "NRKASRNAYYFMVQEKIPELRRRGLPVARVADAIPYCSSDWALLREEEKEKYAEMAREWRAAQGKDPGP", "note": "[F12M]", "abundance fitness": "-0.53 ± 0.047"},
      {"variant": "NRKASRNAYYFIVQEKIPELRRRGLPVARVADAIPYCSSDWALLREEEKEKYAEMAREWRAAQGKDPGP", "note": "[F12I]", "abundance fitness": "-0.97 ± 0.23"},
      {"variant": "NRKASRNAYYFKVQEKIPELRRRGLPVARVADAIPYCSSDWALLREEEKEKYAEMAREWRAAQGKDPGP", "note": "[F12K]", "abundance fitness": "-0.851 ± 0.11"},
      {"variant": "NRKASRNAYYFFVQECIPELRRRGLPVARVADAIPYCSSDWALLREEEKEKYAEMAREWRAAQGKDPGP", "note": "[K16C]", "abundance fitness": "-0.428 ± 0.25"},
      {"variant": "NRKASRNAYYFFVQEWIPELRRRGLPVARVADAIPYCSSDWALLREEEKEKYAEMAREWRAAQGKDPGP", "note": "[K16W]", "abundance fitness": "-0.819 ± 0.18"},
      {"variant": "NRKASRNAYYFFVQEQIPELRRRGLPVARVADAIPYCSSDWALLREEEKEKYAEMAREWRAAQGKDPGP", "note": "[K16Q]", "abundance fitness": "-0.028 ± 0.13"},
      {"variant": "NRKASRNAYYFFVQENIPELRRRGLPVARVADAIPYCSSDWALLREEEKEKYAEMAREWRAAQGKDPGP", "note": "[K16N]", "abundance fitness": "0.082 ± 0.22"},
      {"variant": "NRKASRNAYYFFVQETIPELRRRGLPVARVADAIPYCSSDWALLREEEKEKYAEMAREWRAAQGKDPGP", "note": "[K16T]", "abundance fitness": "-0.375 ± 0.13"},
      {"variant": "NRKASRNAYYFFVQEMIPELRRRGLPVARVADAIPYCSSDWALLREEEKEKYAEMAREWRAAQGKDPGP", "note": "[K16M]", "abundance fitness": "-0.041 ± 0.11"},
      {"variant": "NRKASRNAYYFFVQEYIPELRRRGLPVARVADAIPYCSSDWALLREEEKEKYAEMAREWRAAQGKDPGP", "note": "[K16Y]", "abundance fitness": "-0.697 ± 0.46"},
      {"variant": "NRKASRNAYYFFVQEFIPELRRRGLPVARVADAIPYCSSDWALLREEEKEKYAEMAREWRAAQGKDPGP", "note": "[K16F]", "abundance fitness": "-0.555 ± 0.26"},
      {"variant": "NRKASRNAYYFFVQEGIPELRRRGLPVARVADAIPYCSSDWALLREEEKEKYAEMAREWRAAQGKDPGP", "note": "[K16G]", "abundance fitness": "-0.673 ± 0.1"},
      {"variant": "NRKASRNAYYFFVQEVIPELRRRGLPVARVADAIPYCSSDWALLREEEKEKYAEMAREWRAAQGKDPGP", "note": "[K16V]", "abundance fitness": "-0.41 ± 0.086"},
      {"variant": "NRKASRNAYYFFVQESIPELRRRGLPVARVADAIPYCSSDWALLREEEKEKYAEMAREWRAAQGKDPGP", "note": "[K16S]", "abundance fitness": "-0.141 ± 0.088"},
      {"variant": "NRKASRNAYYFFVQEAIPELRRRGLPVARVADAIPYCSSDWALLREEEKEKYAEMAREWRAAQGKDPGP", "note": "[K16A]", "abundance fitness": "-0.096 ± 0.12"},
      {"variant": "NRKASRNAYYFFVQERIPELRRRGLPVARVADAIPYCSSDWALLREEEKEKYAEMAREWRAAQGKDPGP", "note": "[K16R]", "abundance fitness": "0.031 ± 0.082"}
    ]}
  ]
}
